± gives the standard error. For part of these data: Fewer inactive variants are shown than the library holds.
B1: glmS ribozyme (parent)
chain: AUAAAAGCGCCAGAACUACAGAAAUGUAGUUGACGAGGAGGAGGUUUAUCGAAUUUUCGGCGGAUGCCUCCAAA

Tests used:
Details in all cases: with glucosamine-6-phosphate
[1] = variants of: B1; assay: kcat; higher = faster cleavage; RNA array
Method in brief: (§1)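 Tracking of barcoded ribozyme variants used a hybridised Cy3 probe at 37 °C, after in situ transcription by E. coli RNA polymerase on sequenced MiSeq chips. The flowed solution held 40 μM to 10 mM glucosamine-6-phosphate in HEPES/KCl/Mg(OAc)2 buffer, and imaging ran over ~14 h. kobs was taken from exponential decay fits of normalised per-tile medians, and kcat and KM from weighted Michaelis–Menten fits.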

[2] = variants of: B1; assay: KM; higher = weaker cofactor use; RNA array
Method in brief: as §1

[3] = variants of: B1; assay: self-cleavage kobs at 40 uM GlcN6P; higher = faster cleavage; RNA array
Method in brief: as §1

[4] = variants of: B1; assay: self-cleavage kobs at 640 uM GlcN6P; higher = faster cleavage; RNA array
Method in brief: as §1

[5] = variants of: B1; assay: self-cleavage kobs at 2500 uM GlcN6P; higher = faster cleavage; RNA array
Method in brief: as §1

[6] = variants of: B1; assay: self-cleavage kobs at 10000 uM GlcN6P; higher = faster cleavage; RNA array
Method in brief: as §1

[7] = variants of: B1; assay: self-cleavage kobs at 160 uM GlcN6P; higher = faster cleavage; RNA array
Method in brief: as §1

Variant | kcat [1] | KM [2] | self-cleavage kobs at 40 uM GlcN6P [3] | self-cleavage kobs at 640 uM GlcN6P [4] | self-cleavage kobs at 2500 uM GlcN6P [5] | self-cleavage kobs at 10000 uM GlcN6P [6] | self-cleavage kobs at 160 uM GlcN6P [7]
G13C U55C | 9.82e-05 ± 8.2e-06 s⁻¹ | 1500 ± 410 µM | < 1e-05 s⁻¹ | 3.6e-05 ± 1.6e-05 s⁻¹ | 5.66e-05 ± 1.3e-05 s⁻¹ | 8.8e-05 ± 1.5e-05 s⁻¹ | –
G9A U47G | < 1e-05 s⁻¹ | – | – | < 1e-05 s⁻¹ | – | – | –
A15U U49A C67A | 2.42e-05 ± 8.1e-06 s⁻¹ | – | – | – | – | – | –
U56G G59U | 2.54e-05 ± 5.7e-06 s⁻¹ | – | – | – | 2.9e-05 ± 1.4e-05 s⁻¹ | 2.16e-05 ± 1e-05 s⁻¹ | < 1e-05 s⁻¹
A14U C58U | 0.000114 ± 1.5e-05 s⁻¹ | 2600 ± 960 µM | – | – | 5.89e-05 ± 1.1e-05 s⁻¹ | 9.01e-05 ± 1e-05 s⁻¹ | –
A15G U57C | 0.000143 ± 1.4e-05 s⁻¹ | 2200 ± 520 µM | – | 2.79e-05 ± 9.6e-06 s⁻¹ | 8.09e-05 ± 1.2e-05 s⁻¹ | 0.000113 ± 1.7e-05 s⁻¹ | –
U46C A53C | 0.002 ± 0.00044 s⁻¹ | 1380 ± 480 µM | 7.57e-05 ± 1.7e-05 s⁻¹ | 0.000706 ± 0.00013 s⁻¹ | 0.00155 ± 0.00033 s⁻¹ | 0.00162 ± 0.0003 s⁻¹ | 0.000151 ± 4e-05 s⁻¹
G29U U65A | 0.000516 ± 4.5e-05 s⁻¹ | 2110 ± 340 µM | – | 0.000114 ± 1.9e-05 s⁻¹ | 0.000323 ± 5.9e-05 s⁻¹ | 0.000411 ± 6e-05 s⁻¹ | 3.8e-05 ± 1.4e-05 s⁻¹
G29U U65G | 0.00182 ± 0.0005 s⁻¹ | 4450 ± 1800 µM | 3.41e-05 ± 1.4e-05 s⁻¹ | 0.000188 ± 3e-05 s⁻¹ | 0.000739 ± 0.0001 s⁻¹ | 0.00124 ± 0.00017 s⁻¹ | 8.11e-05 ± 1.6e-05 s⁻¹
U56A A64G | 0.0109 ± 0.0032 s⁻¹ | 1640 ± 680 µM | 0.00036 ± 5.4e-05 s⁻¹ | 0.0025 ± 0.00037 s⁻¹ | 0.00654 ± 0.00084 s⁻¹ | 0.0123 ± 0.0025 s⁻¹ | 0.000983 ± 0.00014 s⁻¹
A52U U56C | 2.72e-05 ± 1.5e-06 s⁻¹ | 1210 ± 330 µM | – | – | – | – | –
A15U G66C | 0.000125 ± 1.5e-05 s⁻¹ | 7900 ± 1900 µM | – | – | 3.02e-05 ± 1.1e-05 s⁻¹ | 6.96e-05 ± 1.2e-05 s⁻¹ | –
A52C U57G | 9.64e-05 ± 1.4e-05 s⁻¹ | 2300 ± 960 µM | – | – | 5.77e-05 ± 1.5e-05 s⁻¹ | 7.59e-05 ± 1.6e-05 s⁻¹ | < 1e-05 s⁻¹
G37A U69G | 2.13e-05 ± 3.7e-06 s⁻¹ | – | – | – | – | – | –
G44A A53G | 0.000575 ± 4.5e-05 s⁻¹ | 2460 ± 440 µM | – | 0.000116 ± 2.3e-05 s⁻¹ | 0.000319 ± 6.7e-05 s⁻¹ | 0.000456 ± 4.8e-05 s⁻¹ | –
C11A G59A | 0.000719 ± 4.8e-05 s⁻¹ | 4140 ± 480 µM | – | 9.86e-05 ± 1.6e-05 s⁻¹ | 0.000248 ± 5e-05 s⁻¹ | 0.000516 ± 5.9e-05 s⁻¹ | –

Variant | kcat [1] | KM [2] | self-cleavage kobs at 40 uM GlcN6P [3] | self-cleavage kobs at 640 uM GlcN6P [4] | self-cleavage kobs at 2500 uM GlcN6P [5] | self-cleavage kobs at 10000 uM GlcN6P [6] | self-cleavage kobs at 160 uM GlcN6P [7]
A15G A52U | 0.000384 ± 8.3e-05 s⁻¹ | 5400 ± 2000 µM | – | 3.21e-05 ± 7.2e-06 s⁻¹ | 0.000147 ± 1.6e-05 s⁻¹ | 0.00024 ± 2.3e-05 s⁻¹ | –
C67A C68U | 0.000125 ± 1.7e-05 s⁻¹ | 497 ± 200 µM | – | 6.61e-05 ± 5.3e-06 s⁻¹ | 0.000126 ± 9.8e-06 s⁻¹ | 0.000106 ± 1e-05 s⁻¹ | 3.25e-05 ± 7.3e-06 s⁻¹
A14C A39U | 0.00308 ± 0.00063 s⁻¹ | 2440 ± 670 µM | 6.46e-05 ± 6.9e-06 s⁻¹ | 0.000605 ± 6.5e-05 s⁻¹ | 0.00174 ± 0.00021 s⁻¹ | 0.00242 ± 0.00026 s⁻¹ | 0.000162 ± 1.9e-05 s⁻¹
U45A A52C | 6.93e-05 ± 3e-05 s⁻¹ | – | – | – | 0.000121 ± 3.4e-05 s⁻¹ | 5.55e-05 ± 1.5e-05 s⁻¹ | < 1e-05 s⁻¹
G29U G40C | 0.000254 ± 6.3e-05 s⁻¹ | – | – | 0.000105 ± 2.4e-05 s⁻¹ | 0.000138 ± 3.6e-05 s⁻¹ | 0.000281 ± 5.2e-05 s⁻¹ | –
A42C U55A | 1.17e-05 ± 4.9e-06 s⁻¹ | – | – | – | – | – | –
G13U G40C | 8.27e-05 ± 6.4e-06 s⁻¹ | 994 ± 460 µM | – | – | 4.94e-05 ± 1.9e-05 s⁻¹ | 7.64e-05 ± 9.8e-06 s⁻¹ | –
A15G U31A | 0.0107 ± 0.0009 s⁻¹ | 2220 ± 260 µM | 0.000199 ± 4.4e-05 s⁻¹ | 0.00236 ± 0.00063 s⁻¹ | 0.00493 ± 0.0014 s⁻¹ | 0.00926 ± 0.0017 s⁻¹ | 0.000722 ± 0.00015 s⁻¹
C10U A33U | 4.38e-05 ± 4e-06 s⁻¹ | – | < 1e-05 s⁻¹ | – | 4.07e-05 ± 1.2e-05 s⁻¹ | 3.99e-05 ± 6.2e-06 s⁻¹ | –
U55G U57A | 0.000252 ± 8.2e-06 s⁻¹ | 2520 ± 190 µM | – | 5.17e-05 ± 1e-05 s⁻¹ | 0.000124 ± 1.5e-05 s⁻¹ | 0.000203 ± 2e-05 s⁻¹ | –
A64C C71U | 0.00012 ± 8.4e-06 s⁻¹ | 2400 ± 500 µM | – | – | 6.58e-05 ± 1.3e-05 s⁻¹ | 9.59e-05 ± 1.1e-05 s⁻¹ | –
U30C A36C | < 1e-05 s⁻¹ | – | < 1e-05 s⁻¹ | – | < 1e-05 s⁻¹ | < 1e-05 s⁻¹ | –
C16A U47A | 0.000851 ± 0.00014 s⁻¹ | 1150 ± 410 µM | – | 0.000544 ± 0.00013 s⁻¹ | 0.000553 ± 0.00011 s⁻¹ | 0.000758 ± 0.00011 s⁻¹ | 9.46e-05 ± 2.7e-05 s⁻¹
U47G A48U | 0.000199 ± 1.8e-05 s⁻¹ | 905 ± 230 µM | – | 8.89e-05 ± 1.5e-05 s⁻¹ | 0.000128 ± 2e-05 s⁻¹ | 0.000196 ± 2.4e-05 s⁻¹ | 3.01e-05 ± 1.4e-05 s⁻¹
A42U G66U | 6.96e-05 ± 7.8e-06 s⁻¹ | 1930 ± 830 µM | < 1e-05 s⁻¹ | – | 4.29e-05 ± 9.1e-06 s⁻¹ | 5.76e-05 ± 6.8e-06 s⁻¹ | –
G66C | 0.000832 ± 7.4e-05 s⁻¹ | 1470 ± 210 µM | 2.55e-05 ± 1.8e-06 s⁻¹ | 0.000244 ± 6.2e-06 s⁻¹ | 0.000709 ± 3.8e-05 s⁻¹ | 0.000712 ± 1.8e-05 s⁻¹ | 8.08e-05 ± 2.4e-06 s⁻¹

Source: the supplement of paper PMC7125110
